According to PMC2212017:

Biological target: T1, TRPV2 (transient receptor potential vanilloid 2), endogenous in RBL2H3 mast cells (rat (endogenous in RBL2H3)), Q9WUD2
T1 chain: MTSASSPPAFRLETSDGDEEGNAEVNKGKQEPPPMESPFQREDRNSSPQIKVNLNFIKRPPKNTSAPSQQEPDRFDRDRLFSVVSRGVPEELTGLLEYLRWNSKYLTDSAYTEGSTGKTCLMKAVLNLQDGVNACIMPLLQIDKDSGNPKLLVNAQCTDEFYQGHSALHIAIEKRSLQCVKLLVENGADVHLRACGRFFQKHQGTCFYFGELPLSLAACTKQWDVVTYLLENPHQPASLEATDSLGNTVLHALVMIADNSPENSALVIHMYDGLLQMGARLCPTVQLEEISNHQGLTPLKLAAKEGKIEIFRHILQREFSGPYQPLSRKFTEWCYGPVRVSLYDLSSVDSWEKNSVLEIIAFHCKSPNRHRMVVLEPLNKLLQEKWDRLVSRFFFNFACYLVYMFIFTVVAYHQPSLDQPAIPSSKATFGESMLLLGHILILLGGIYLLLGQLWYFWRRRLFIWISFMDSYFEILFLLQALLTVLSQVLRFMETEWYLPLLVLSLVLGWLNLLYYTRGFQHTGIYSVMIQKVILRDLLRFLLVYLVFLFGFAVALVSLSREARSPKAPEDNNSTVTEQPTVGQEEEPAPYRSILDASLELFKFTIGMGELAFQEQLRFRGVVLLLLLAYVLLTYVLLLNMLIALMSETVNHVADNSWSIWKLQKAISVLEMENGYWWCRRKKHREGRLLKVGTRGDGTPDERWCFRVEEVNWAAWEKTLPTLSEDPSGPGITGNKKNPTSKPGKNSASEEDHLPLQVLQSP
Assay: native gel or EMSA
Conditions: remark: other sources report otherwise

B1: TRPV2 (transient receptor potential vanilloid 2), endogenous in RBL2H3 mast cells, Q9WUD2 1-761 (natural protein)
chain: MTSASSPPAFRLETSDGDEEGNAEVNKGKQEPPPMESPFQREDRNSSPQIKVNLNFIKRPPKNTSAPSQQEPDRFDRDRLFSVVSRGVPEELTGLLEYLRWNSKYLTDSAYTEGSTGKTCLMKAVLNLQDGVNACIMPLLQIDKDSGNPKLLVNAQCTDEFYQGHSALHIAIEKRSLQCVKLLVENGADVHLRACGRFFQKHQGTCFYFGELPLSLAACTKQWDVVTYLLENPHQPASLEATDSLGNTVLHALVMIADNSPENSALVIHMYDGLLQMGARLCPTVQLEEISNHQGLTPLKLAAKEGKIEIFRHILQREFSGPYQPLSRKFTEWCYGPVRVSLYDLSSVDSWEKNSVLEIIAFHCKSPNRHRMVVLEPLNKLLQEKWDRLVSRFFFNFACYLVYMFIFTVVAYHQPSLDQPAIPSSKATFGESMLLLGHILILLGGIYLLLGQLWYFWRRRLFIWISFMDSYFEILFLLQALLTVLSQVLRFMETEWYLPLLVLSLVLGWLNLLYYTRGFQHTGIYSVMIQKVILRDLLRFLLVYLVFLFGFAVALVSLSREARSPKAPEDNNSTVTEQPTVGQEEEPAPYRSILDASLELFKFTIGMGELAFQEQLRFRGVVLLLLLAYVLLTYVLLLNMLIALMSETVNHVADNSWSIWKLQKAISVLEMENGYWWCRRKKHREGRLLKVGTRGDGTPDERWCFRVEEVNWAAWEKTLPTLSEDPSGPGITGNKKNPTSKPGKNSASEEDHLPLQVLQSP
stoichiometry N: 4
